Data as given in US20250388664A1 (BIOARCTIC, published 2025).

B1: h26D3 variant HC1 Fab (Fab, V domains shown)
VH: EVQLVQSGAEVKKPGSSVKVSCKASGYIFTAYNMDWVRQAPGQGLEWIGDINPDYDTTSYNEKFKGRATLTVDKSTSTAYMELSSLRSEDTAVYYCARGGYSGSSYYHPMDYWGQGTLVTVSS
VL: DIQMTQSPSSVSASVGDRVTITCKSSQSLLYSTNQKNYLAWYQQKPGKAPKLLIYWASTRESGVPSRFSGSGSGTDFTLTISSLQPEDFATYYCQQYFIYPRTFGQGTKVEIK
notes: Single-mutant His-tagged Fab; also called D31A
B2: h26D3 variant HC13 Fab (Fab, V domains shown)
VH: EVQLVQSGAEVKKPGSSVKVSCKASGYIFTDYNMDWVRQAPGQGLEWIGDINPDYDTTSYNEKFKGRATLTVDKSTSTAYMELSSLRSEDTAVYYCARGGYSGSSYYHPMDAWGQGTLVTVSS
VL: DIQMTQSPSSVSASVGDRVTITCKSSQSLLYSTNQKNYLAWYQQKPGKAPKLLIYWASTRESGVPSRFSGSGSGTDFTLTISSLQPEDFATYYCQQYFIYPRTFGQGTKVEIK
notes: Single-mutant His-tagged Fab; also called Y112A
B3: h26D3 variant LC3 Fab (Fab, V domains shown)
VH: EVQLVQSGAEVKKPGSSVKVSCKASGYIFTDYNMDWVRQAPGQGLEWIGDINPDYDTTSYNEKFKGRATLTVDKSTSTAYMELSSLRSEDTAVYYCARGGYSGSSYYHPMDYWGQGTLVTVSS
VL: DIQMTQSPSSVSASVGDRVTITCKSSQSLLYSTNQKNYLAWYQQKPGKAPKLLIAWASTRESGVPSRFSGSGSGTDFTLTISSLQPEDFATYYCQQYFIYPRTFGQGTKVEIK
notes: Single-mutant His-tagged Fab; also called Y55A
B4: h26D3 variant HC12 Fab (Fab, V domains shown)
VH: EVQLVQSGAEVKKPGSSVKVSCKASGYIFTDYNMDWVRQAPGQGLEWIGDINPDYDTTSYNEKFKGRATLTVDKSTSTAYMELSSLRSEDTAVYYCARGGYSGSSYYHPMAYWGQGTLVTVSS
VL: DIQMTQSPSSVSASVGDRVTITCKSSQSLLYSTNQKNYLAWYQQKPGKAPKLLIYWASTRESGVPSRFSGSGSGTDFTLTISSLQPEDFATYYCQQYFIYPRTFGQGTKVEIK
notes: Single-mutant His-tagged Fab; also called D111A
B5: h26D3 variant LC2 Fab (Fab, V domains shown)
VH: EVQLVQSGAEVKKPGSSVKVSCKASGYIFTDYNMDWVRQAPGQGLEWIGDINPDYDTTSYNEKFKGRATLTVDKSTSTAYMELSSLRSEDTAVYYCARGGYSGSSYYHPMDYWGQGTLVTVSS
VL: DIQMTQSPSSVSASVGDRVTITCKSSQSLLYSTNQKNALAWYQQKPGKAPKLLIYWASTRESGVPSRFSGSGSGTDFTLTISSLQPEDFATYYCQQYFIYPRTFGQGTKVEIK
notes: Single-mutant His-tagged Fab; also called Y38A
B6: h26D3 variant HC9 Fab (Fab, V domains shown)
VH: EVQLVQSGAEVKKPGSSVKVSCKASGYIFTDYNMDWVRQAPGQGLEWIGDINPDYDTTSYNEKFKGRATLTVDKSTSTAYMELSSLRSEDTAVYYCARGGASGSSYYHPMDYWGQGTLVTVSS
VL: DIQMTQSPSSVSASVGDRVTITCKSSQSLLYSTNQKNYLAWYQQKPGKAPKLLIYWASTRESGVPSRFSGSGSGTDFTLTISSLQPEDFATYYCQQYFIYPRTFGQGTKVEIK
notes: Single-mutant His-tagged Fab; also called Y101A
B7: h26D3 variant LC4 Fab (Fab, V domains shown)
VH: EVQLVQSGAEVKKPGSSVKVSCKASGYIFTDYNMDWVRQAPGQGLEWIGDINPDYDTTSYNEKFKGRATLTVDKSTSTAYMELSSLRSEDTAVYYCARGGYSGSSYYHPMDYWGQGTLVTVSS
VL: DIQMTQSPSSVSASVGDRVTITCKSSQSLLYSTNQKNYLAWYQQKPGKAPKLLIYAASTRESGVPSRFSGSGSGTDFTLTISSLQPEDFATYYCQQYFIYPRTFGQGTKVEIK
notes: Single-mutant His-tagged Fab; also called W56A
B8: h26D3 variant HC7 Fab (Fab, V domains shown)
VH: EVQLVQSGAEVKKPGSSVKVSCKASGYIFTDYNMDWVRQAPGQGLEWIGDINPDYATTSYNEKFKGRATLTVDKSTSTAYMELSSLRSEDTAVYYCARGGYSGSSYYHPMDYWGQGTLVTVSS
VL: DIQMTQSPSSVSASVGDRVTITCKSSQSLLYSTNQKNYLAWYQQKPGKAPKLLIYWASTRESGVPSRFSGSGSGTDFTLTISSLQPEDFATYYCQQYFIYPRTFGQGTKVEIK
notes: Single-mutant His-tagged Fab; also called D56A

These binders were tested against T1, ectodomain of human TfR1 (His10-hTfR1; SEQ ID NO:110) (human, UniProt P02786 89-760) (assay: BLI: His-tagged Fab loaded from cell supernatant on anti-Fab sensors, hTfR1 ectodomain at 3.75 µg/ml in solution, 300 s association, 300 s dissociation).
T1 construct: also called ectodomain of hTfR1
Excerpt: The generated alanine variants were expressed as single mutant, His-tagged Fabs by transient transfection of Chinese hamster ovary cells (ExpiCHO; Thermo Fisher Scientific) according to the manufacturer's instructions. Clarified media, into which the Fabs had been secreted, was used to assess binding to hTfR1 by BLI (Octet RED384, ForteBio). The expressed Fabs were loaded from the cell supernatants onto anti-Fab biosensors during 240 s. Thereafter, association of ectodomain of hTfR1 (SEQ ID NO:110), diluted to 3.75 μg/ml in 1× Kinetics buffer (ForteBio), to the loaded sensors was measured for 300 s, followed by dissociation for 300 s.

T1 sequence (P02786 other isoform, or with tags, fused parts or gaps): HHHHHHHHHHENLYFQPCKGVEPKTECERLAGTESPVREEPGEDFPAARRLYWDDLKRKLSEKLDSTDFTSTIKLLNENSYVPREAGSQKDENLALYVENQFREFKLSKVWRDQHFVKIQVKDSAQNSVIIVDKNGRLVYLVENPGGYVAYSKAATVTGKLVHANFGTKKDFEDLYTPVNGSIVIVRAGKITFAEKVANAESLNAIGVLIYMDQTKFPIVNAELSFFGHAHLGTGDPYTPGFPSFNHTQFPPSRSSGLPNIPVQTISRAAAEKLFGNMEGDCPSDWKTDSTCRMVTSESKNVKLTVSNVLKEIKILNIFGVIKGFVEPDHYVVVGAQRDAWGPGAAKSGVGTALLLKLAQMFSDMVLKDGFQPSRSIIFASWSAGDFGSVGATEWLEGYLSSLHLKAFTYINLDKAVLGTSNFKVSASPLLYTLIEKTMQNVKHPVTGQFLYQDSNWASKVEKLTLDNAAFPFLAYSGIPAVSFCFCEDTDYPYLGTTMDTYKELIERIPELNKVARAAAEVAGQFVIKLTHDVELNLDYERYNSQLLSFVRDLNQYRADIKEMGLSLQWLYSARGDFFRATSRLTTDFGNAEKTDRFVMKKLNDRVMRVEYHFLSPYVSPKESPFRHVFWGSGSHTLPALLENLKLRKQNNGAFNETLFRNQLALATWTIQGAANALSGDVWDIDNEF

Binding result, binds:
B1
B2
B3
B4
B5
B6
B7
B8
